Data from patent publication US20250145679A1.

What was measured:
[1] = target: human lymphoma (HH) cell line (human); assay: binding to HH cells, dose-dependent (FIG. 5); receptor on the cells not named
[2] = target: T1, IL-2/15Rβ (CD122) ECD (human) (UniProt P14784); assay: SPR, Biacore 8K, complex captured on anti-human Fc CM5 chip, receptor ECD-His injected; ka and kd printed as NA
T1 sequence: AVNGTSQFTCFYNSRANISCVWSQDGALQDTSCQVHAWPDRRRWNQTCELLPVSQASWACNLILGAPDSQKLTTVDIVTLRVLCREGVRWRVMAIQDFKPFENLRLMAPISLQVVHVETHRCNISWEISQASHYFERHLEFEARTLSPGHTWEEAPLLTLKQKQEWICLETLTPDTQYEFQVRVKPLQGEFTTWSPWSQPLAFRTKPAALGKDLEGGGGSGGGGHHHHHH

B1: W327151-BMK1 (XENP24306) (Fc fusion, part only; not given: IL-15Ralpha-Fc chain, linker and Fc, not shown: a dimerising Fc or GST)
chain, part: NWVNVISDLKKIEDLIQSMHIDATLYTESNVHPSCKVTAMKCFLLELQVISLESGDASIHDTVQDLIILANNSLSSNGNVTESGCKECEELEEKNIKEFLQSFVHIVQMFINTS
EC50 [1]: 0.172 µM | Kd [2]: 8.58 µM
